Key:
Assay in all cases: IEDB peptide-MHC binding, purified MHC/direct/fluorescence; filed as Kd, often an IC50 or EC50 that approximates it; ≥ and ≤ were set here for values at or beyond the usual limits of such assays
HLA-A*69:01 = molecular target: HLA-A*69:01
HLA-B*18:01 = conditions: source organism: Yellow fever virus
HLA-A*11:01 = molecular target: HLA-A*11:01
HLA-A*02:01 = molecular target: HLA-A*02:01
HLA-B*46:01 = conditions: source organism: Yellow fever virus
HLA-B*07:02 = molecular target: HLA-B*07:02
HLA-B*48:01 = conditions: source organism: Yellow fever virus
HLA-A*03:01 = molecular target: HLA-A*03:01
HLA-B*58:01 = molecular target: HLA-B*58:01
HLA-B*15:09 = conditions: source organism: Yellow fever virus
HLA-B*57:01 = conditions: source organism: Yellow fever virus
HLA-B*15:01 = molecular target: HLA-B*15:01
HLA-B*40:01 = molecular target: HLA-B*40:01
HLA-B*27:05 = molecular target: HLA-B*27:05
HLA-A*31:01 = molecular target: HLA-A*31:01
HLA-A*01:01 = molecular target: HLA-A*01:01
HLA-B*44:02 = molecular target: HLA-B*44:02
HLA-B*08:01 = molecular target: HLA-B*08:01
HLA-A*26:01 = molecular target: HLA-A*26:01
HLA-B*35:01 = molecular target: HLA-B*35:01
[1] = source organism: Yellow fever virus
[2] = source organism: Haemophilus influenzae
[3] = source organism: Vibrio parahaemolyticus

Sequence FHKRDMRLL has a Kd (HLA-A*69:01; [1]) of no less than 20 µM, a Kd (HLA-B*18:01) of no less than 20 µM and a Kd (HLA-A*11:01; [1]) of no less than 20 µM. It also gave a Kd (HLA-A*02:01; [1]) of no less than 20 µM, a Kd (HLA-B*46:01) of no less than 20 µM and a Kd (HLA-B*07:02; [1]) of no less than 20 µM. It also gave a Kd (HLA-B*48:01) of no less than 20 µM, a Kd (HLA-A*03:01; [1]) of no less than 20 µM and a Kd (HLA-B*58:01; [1]) of no less than 20 µM. It also gave a Kd (HLA-B*15:09) of 3000 nM, a Kd (HLA-B*57:01) of no less than 20 µM and a Kd (HLA-B*15:01; [1]) of no less than 20 µM. It also gave a Kd (HLA-B*40:01; [1]) of no less than 20 µM, a Kd (HLA-B*27:05; [1]) of no less than 20 µM and a Kd (HLA-A*31:01; [1]) of no less than 20 µM. For the same sequence, the Kd (HLA-A*01:01; [1]) was no less than 20 µM and the Kd (HLA-B*44:02; [1]) was no less than 20 µM.
EIKFNDITF was tested, and the Kd (HLA-A*69:01; [2]) was no less than 20 µM, the Kd (HLA-B*08:01; [2]) was 2640 nM and the Kd (HLA-A*26:01; [2]) was 568 nM. For the same sequence, the Kd (HLA-A*11:01; [2]) was no less than 20 µM, the Kd (HLA-A*02:01; [2]) was no less than 20 µM and the Kd (HLA-B*07:02; [2]) was 1.06 µM. It also gave a Kd (HLA-B*35:01; [2]) of 50.9 nM, a Kd (HLA-A*03:01; [2]) of no less than 20 µM and a Kd (HLA-B*58:01; [2]) of no less than 20 µM. For the same sequence, the Kd (HLA-B*15:01; [2]) was no less than 20 µM, the Kd (HLA-B*40:01; [2]) was no less than 20 µM and the Kd (HLA-B*27:05; [2]) was no less than 20 µM. For the same sequence, the Kd (HLA-A*31:01; [2]) was no less than 20 µM and the Kd (HLA-A*01:01; [2]) was no less than 20 µM.
Work on AFDWPELEF yielded a Kd (HLA-A*69:01; [3]) of no less than 20 µM, a Kd (HLA-B*08:01; [3]) of no less than 20000 nM and a Kd (HLA-A*26:01; [3]) of no less than 20000 nM. For the same sequence, the Kd (HLA-A*11:01; [3]) was no less than 20 µM, the Kd (HLA-A*02:01; [3]) was no less than 20 µM and the Kd (HLA-B*07:02; [3]) was no less than 20 µM. For the same sequence, the Kd (HLA-B*35:01; source organism: Vibrio vulnificus) was 77.2 nM, the Kd (HLA-A*03:01; [3]) was no less than 20 µM and the Kd (HLA-B*27:05; [3]) was no less than 20 µM. The Kd (HLA-A*31:01; [3]) was no less than 20 µM, the Kd (HLA-A*01:01; [3]) was no less than 20 µM and the Kd (HLA-B*44:02; [3]) was no less than 20 µM.

Reference: the Immune Epitope Database (IEDB)
